Patent publication US20250026813A1 (published 2025)
Where a chain is given by its changes, count along the chain named.

B1: IMPI-024 (antibody, V domains shown)
VH: EVQLVQSGAEVKKPGESLKISCKGSGYSFTSYWIGWVRQMPGKGLEWMGIIYPGDSDTRYSPSFQGQVTISADKSISTAYLQWSSLKASDTAMYYCVRSYNWNYFDYWGQGTLVTVSS
VL: AIQLTQSPSSLSASVGDRVTITCRASQGISSGLAWYQQKAGKAPKLLIYDVSSLESGVPSRFSGSGSGTDFTLTISSLQPEDFATYYCQQFLSYPWTFGQGTKVEIK
B2: IMPI-029 (antibody, V domains shown)
VH: EVQLVESGGGLIQPGGSLRLSCAASGVTVSSNYMNWVRQAPGKGLEWVSVIYSGGSTYYADSVKGRFTISRDNSKNTLFLQMNSLRAEDSAVYYCARDLGPYGVDVWGQGTTVTVSS
VL: DIQLTQSPSFLSASVGDRVTITCWASQGISSYLAWYQQKPGKAPKLLIYAASTLQSGVPSRFSGSGSGTEFTLTISSLQPEDFATYYCQELNSYPLTFGQGTRLEIK
B3: IMPI-005 (antibody, V domains shown)
VH: B2 VH with V27F
VL: B2 VL
B4: IMPI-021 (antibody, V domains shown)
VH: B2 VH with N35S, Y58F, F79Y, S90T, G100S, P101Y, V104M
VL: B2 VL with R61K, E90Q, L96C, T97S, R103K
B5: IMPI-060 (antibody, V domains shown)
VH: B2 VH with N35S, Y58F, F79Y, S90T, G100S, P101Y, V104M
VL: B2 VL with R61K, E90Q, L96S, T97S, R103K
B6: IMPI-054 (antibody, V domains shown)
VH: EVQLVESGGGLIQPGGSLRLSCAASGLTVSSNYMSWVRQAPGKGLEWVSIIYSGGSTYYADSVKGRFTISRDNSKNTLYLQMNSLRAEDTAVYYCARLGGYYYYGMDVWGQGTTVTVSS
VL: DIQMTQSPSSLSASVGERVTITCQASQDIRNYLNWYQKKPGKAPKLLIYDSSNLETGVPSRFSGSGSGTDFTFTISSLQPEDIATYYCQQYDNLPITFGQGTRLEIK
B7: IMPI-042 (antibody, V domains shown)
VH: B6 VH
VL: B6 VL with S65G
B8: IMPI-063 (antibody, V domains shown)
VH: EVQLVESGGGVVRPGGSLRLSCAASGFTFDDYGMSWVRQAPGKGLEWVSGIYWNGGSTGYADSVKGRFTISRDNAKNSLYLQMNSLRAEDMALYYCARGVGATDYWGQGTLVTVSS
VL: EIVLTQSPGTLSLSSGERATLACRASESVRGSFLAWYQQKPGQAPRLLIYGASRRATGIPDRFSGSGSGTDFTLTISRLEPEDFAVYYCQQYGNSPMCSFGQGTKLEIK
B9: IMPI-029 (antibody, V domains shown)
VH: B2 VH
VL: B2 VL
B10: IMPI-005 (antibody, V domains shown)
VH: B2 VH with V27F
VL: B2 VL
B11: IMPI-021 (antibody, V domains shown)
VH: B2 VH with N35S, Y58F, F79Y, S90T, G100S, P101Y, V104M
VL: B2 VL with R61K, E90Q, L96C, T97S, R103K
B12: IMPI-056 (antibody, V domains shown)
VH: B2 VH with V27L, G44K, Y58F, K64R
VL: B2 VL with E90Q
B13: IMPI-060 (antibody, V domains shown)
VH: B2 VH with N35S, Y58F, F79Y, S90T, G100S, P101Y, V104M
VL: B2 VL with R61K, E90Q, L96S, T97S, R103K
B14: IMPI-047 (antibody, V domains shown)
VH: B2 VH with V27F, F79Y, A87T, S90T, G100V, P101A, V104M
VL: B2 VL with L46V, E90L, Y94N, Q100G, R103K, L104V
B15: IMPI-006 (antibody, V domains shown)
VH: QLQLQESGPGLVKPSETLSLTCTVSGGSISNSNYYWGWIRQPPGKGLEWIGSIYYSGRTYYNPSLKSRVTISVDTSKNQFSLKLSSVTAADTAVYYCARMGLLWFGEFYGMDVWGQGTTVTVSS
VL: DIQMTQSPSSLSASVGDRVTITCRASQGISSWLAWYQQKPEKAPKSLIYDASSLQRGVPSRFSGSGSGTDFTLTISSLQPEDFASYYCQQYNSYPLTFGGGTRVEIK
B16: IMPI-055 (antibody, V domains shown)
VH: QVQLVQSGAEVKKPGASVKVSCKASGYTFTSYDINWVRQATGQGLEWMGWMNPNSGNTGYAQKFQGRVTMTRDTSINTAYMELSSLRSEDTAVYFCARGGRYCSDVTCYSGEPFDYWGQGTLVTVSS
VL: EIMLTQSPDFQSVTPKEKVTITCRASQSIGSSLHWYQQKPDQSPKLLIKFASQSISGVPSRFSGSGSGTDFTLTINSLEAEDAAAYYCHQSSSLPHTFGPGTKVEIK
B17: IMPI-054 (antibody, V domains shown)
VH: B6 VH
VL: B6 VL
B18: IMPI-042 (antibody, V domains shown)
VH: B6 VH
VL: B6 VL with S65G
B19: IMPI-017 (antibody, V domains shown)
VH: B2 VH with S25A, V27L, A40V, F79Y, S90T, P101T, Y102L, V104M
VL: B2 VL with S31T, E90Q, P95L, L96P, R103K, L104V
B20: IMPI-059 (antibody, V domains shown)
VH: EVQLVESGGGLIQPGGSLRLSCAASGFTVSSIYMSWVRQAPGKGLEWVSIIYSRGSTDYADSVKGRFTISRDISKNTLYLQMNSLRAEDTAVYYCARDGTMVRGVHAFDIWGQGTMVTVSS
VL: DIQMTQSPPSLSASIGDRVTITCQASQDISNYLNWYQQKPGKAPKLLIYDASNLETGVPSRFSGSGSGTDFTLTISNLQPEDIVTYYCQQYDNLPSSFGQGTKLEIK
B21: IMPI-037 (antibody, V domains shown)
VH: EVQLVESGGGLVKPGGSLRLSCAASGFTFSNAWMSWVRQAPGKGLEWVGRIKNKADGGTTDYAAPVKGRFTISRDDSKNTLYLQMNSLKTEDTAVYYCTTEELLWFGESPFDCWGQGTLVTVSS
VL: B2 VL with S30N, A84T, E90Q, L91F, S93D, L96R, Q100P, R103K, L104V
B22: IMPI-027 (antibody, V domains shown)
VH: QVQLQESGPGLVKPSQTLSLTCTVSGGSISSYGYYWNWIRQHPGKGLEWIGYIYYSGSTYYNPSLKSRVTISVDTSKNQLSLRLNSVSAADTAVYYCARDFGGNSNYFDYWGQGTLVTVSS
VL: B1 VL with A25T, G32A, A40P, V51A, L92N, W96L, Q100G
B23: IMPI-033 (antibody, V domains shown)
VH: B22 VH with N37S, I71M
VL: B1 VL with G32A, A40P, K45N, V51A, L92N, Y94S, W96L, Q100G
B24: IMPI-038 (antibody, V domains shown)
VH: QVQLVESGGGVVQPGRSLRLSCAASGFTFSSYGMHWVRQAPGKGLEWVAVISYDGSDKYYADSVKGRFTISRDNSKNTLYLQMNSLRAEDTAVYYCAKTVAGYYYYYYGMDVWGQGTTVTVSS
VL: DIQMTQSPSSVSASVGDRVTVTCRASQDISSWLAWFQQKPGKAPKFLIYDASNLENGVPSRFSGSGSGTDFTLTISSLQPEDFATYYCQQAKSFPWTFGQGTKVEIN
B25: IMPI-024 (antibody, V domains shown)
VH: B1 VH
VL: B1 VL
B26: IMPI-068 (antibody, V domains shown)
VH: QVQLVESGGDVVQPGRSLRLSCAASGFTFSRYGMHWVRQAPGKGLEWVAVISYDGSDKYYADSVKGRFTISRDNSKNTLYLQMNSLRAEDTAVYYCAKQLPLYYYYYGMDVWGQGTTVTVSS
VL: B1 VL with G32A, A40P, K45N, V51A, L92N, S93I, W96H, Q100P, E105D
B27: IMPI-047 (antibody, V domains shown)
VH: B2 VH with V27F, F79Y, A87T, S90T, G100V, P101A, V104M
VL: B2 VL with L46V, E90L, Y94N, Q100G, R103K, L104V

Assays:
[1] = target: T1, S2 subunit of the SARS-CoV-2 spike protein (Sino Biological 40590-V08B), His tag (SARS-CoV-2, UniProt P0DTC2 686-1213)
T1 construct: domain: S2 subunit

[2] = target: SARS-CoV-2 spike protein receptor binding domain (isolated RBD) (SARS-CoV-2, UniProt P0DTC2 319-541)

| Binder | HTRF deltaF [1] [deltaF] | Kd [2] [nM] | koff [2] [s⁻¹] | kon [2] [M⁻¹ s⁻¹] |
| --- | --- | --- | --- | --- |
| B1 | -15.4 | – | – | – |
| B2 | 4.1 | – | – | – |
| B3 | -1.8 | – | – | – |
| B4 | -0.3 | – | – | – |
| B5 | 6 | – | – | – |
| B6 | 15.8 | – | – | – |
| B7 | 1.6 | – | – | – |
| B8 | 411 | – | – | – |
| B9 | – | 0.195 | 0.000157 | 808000 |
| B10 | – | 3.09 | 0.0071 | 2.3e+06 |
| B11 | – | 8.08 | 0.00443 | 548000 |
| B12 | – | 0.44 | – | – |
| B13 | – | 59.2 | 0.0277 | 469000 |
| B14 | – | 2.38 | 0.000878 | 368000 |
| B15 | – | 0.88 | 8.19 | 9.3e+09 |
| B16 | – | 0.959 | 0.00264 | 2.75e+06 |
| B17 | – | 1.11 | 0.000627 | 564000 |
| B18 | – | 1.15 | 0.000617 | 536000 |
| B19 | – | 1.87 | 0.000976 | 522000 |
| B20 | – | 0.646 | 0.00426 | 6.59e+06 |
| B21 | – | 9.28 | 0.0232 | 2.5e+06 |
| B22 | – | 4.06 | 26.3 | 6.48e+09 |
| B23 | – | 3.37 | 0.00741 | 2.2e+06 |
| B24 | – | 2.92 | – | – |
| B25 | – | 0.633 | 0.00134 | 2.12e+06 |
| B26 | – | 40.5 | – | – |
| B27 | 4.3 | – | – | – |
